# Values quoted from earlier work, collected in PMC3212873.
# Values joined by “and” are separate entries in the source; they are usually repeats but may differ in a detail not shown here. Equal entries are not always repeated.
# How the values were obtained:
# [1] = biological target: T1, Cys32 (UniProt position 33, FWAEWCGPCKM); test: NMR; details: reduced Trx-(SH)2, no protein ligand
# [2] = biological target: T2, Cys35 (UniProt position 36, EWCGPCKMIAP); test: chemical modification; details: reduced Trx-(SH)2, no protein ligand
# [3] = biological target: T1, Cys32; test: chemical modification; details: reduced Trx-(SH)2, no protein ligand
# [4] = biological target: T1, Cys32; test: fluorescence; details: reduced Trx-(SH)2, no protein ligand
# [5] = biological target: T2, Cys35; test: UV-vis; details: reduced Trx-(SH)2, no protein ligand
# [6] = biological target: T1, Cys32; test: UV-vis; details: reduced Trx-(SH)2, no protein ligand
# [7] = biological target: T2, Cys35; test: Raman; details: reduced Trx-(SH)2, no protein ligand
# [8] = biological target: T1, Cys32; test: Raman; details: reduced Trx-(SH)2, no protein ligand
# [9] = biological target: Cys32 (UniProt position 33, FWAEWCPYCKM); details: reduced variant
Substance,pKa [1],pKa [2],pKa [3],pKa [4],pKa [5],pKa [6],pKa [7],pKa [8],pKa [9]
Thioredoxin 1 (EcTrx) (Escherichia coli),7.4 and 7.0-7.1 and 7.5 or 9.2,9.0,6.7,6.28,9-10,9-10,7.9,7.1,
"Thioredoxin 1, glutaredoxin-like active-site variant (Grx-like EcTrx, CPYC) (Escherichia coli; G33P;P34Y)",,,,,,,,,5.9
